Reference: the supplement of paper PMC10567573
± gives the standard deviation.

Test: protein stability index of a GFP-peptide fusion (GPS, HEK-293T) (PSI 1-6); higher = more stable
[1] = treatment: DMSO, c terminus: a fixed tail appended
[2] = treatment: MLN4924 1 uM, 8 h, c terminus: a fixed tail appended
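Further: 24-mer peptide tiles fused after GFP, lentivirally expressed, FACS-sorted into six equal bins by GFP/DsRed ratio, decoded by Illumina sequencing, PSI is the read-weighted mean bin number.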

Sequence	protein stability index [1]	protein stability index [2]	protein stability index (treatment: DMSO, c terminus: native)	protein stability index (treatment: MLN4924 1 uM, 8 h, c terminus: native)
VSGSHFVGVDGVRAFLQTYSHEVS [PCDHGA10]	2.49 ± 0.27	2.24 ± 0.24		
VSNTRLIAAATSVLKTRFSYAFPK [CCNC]	2.24 ± 0.44	1.96 ± 0.34		
VSPGGVKLEISTKEVPVVHTETKT [EPB41L3]	4.88 ± 0.29	5 ± 0.3		
VTGHTNIVDFLTHHAQTSKTERIN [FEM1C]	3.45 ± 0.11	3.54 ± 0.19		
VTLELSQLSMLPHLADLVSYSIQK [VDR]	2.86 ± 0.52	2.91 ± 0.26		
VVLCFSIANPNSLHHVKTMWYPEI [RHOBTB2]	3.23 ± 0.42	3.16 ± 0.21		
VYKSLLLLAYLIRNGSERVVTSAR [CLINT1]	2.57 ± 0.51	2.59 ± 0.39		
WKALSEFALQSDLDQPAFQQLVSF [ISL2]	2.21 ± 0.14	2.31 ± 0.37		
WKEGRPRVEESGSKKEGKRQGPKE [PBXIP1]	5.28 ± 0.46	5.24 ± 0.12		
WLPQQNAAYFLLSTNDKTVKLWKV [PPP2R2B]	2.53 ± 0.63	2.6 ± 0.8		
WSRLEEFDVFSPKQDLVPGSPDDS [DLC1]	4.45 ± 0.27	4.87 ± 0.38		
WTNRLCHQEMGSKKTVTQEDRGW [SPAG8]			3.08 ± 0.64	2.79 ± 0.41
WTPLHLACYFGHRQVVQDLLKAGA [OSBPL1A]	2.61 ± 0.6	2.64 ± 0.48		
YAGNLHESGVHGALLALDENFDHN [PPFIA4]	3.26 ± 0.51	3.7 ± 0.73		
YECNHCGKGFRHSSSLAQHQRKHA [ZNF8]	5.08 ± 0.32	5.12 ± 0.28		
YEMTDLTNNKVYAAKIIPHSRVAK [PLK2]	3.78 ± 0.092	4.05 ± 0.28		
YESSADIAGDEGTQIPADEDTQTD [TAF7L]	5.61 ± 0.24	5.53 ± 0.24		
YEWARDHRAHHKFSETHADPHNSR [SCD]	3.96 ± 0.28	4.12 ± 0.18		
YFALRKILKQLIADVTLDPETAHP [TRIM39]	4.09 ± 0.2	4.34 ± 0.21		
YKGELFDKTPVLLTDYPVDLDEIA [MYORG]	3.73 ± 0.28	3.75 ± 0.16		
YMRYSRKVWDQVKASNPDLKLWEI [SMARCE1]	2.18 ± 0.73	1.95 ± 0.066		
YPVTIGGKIVGSLCAIAGVLTIAL [KCNA1]	2.35 ± 0.21	2.23 ± 0.16		
YSCQSKEILRYMKEFTLLLSAANV [P2RY14]	2.4 ± 0.45	2.26 ± 0.31		
YSLMKRQMMSATAQNREPESVEQL [SNX8]	4.37 ± 0.38	4.48 ± 0.19		
YSLVTHIPAGARDIQIVERKKSAD [ADAMTSL2]	4.37 ± 0.22	4.67 ± 0.41		
YSSQLSQVQSLITNVESQLAEIRS [KRT33B]	3.49 ± 0.1	3.66 ± 0.2		
YTDYVATRWYRAPELLVGDTQYGS [CDKL4]	2.56 ± 0.7	2.38 ± 0.34		
YTGRAPNLDKMADNLLAAADKYAL [SPOPL]	2.78 ± 0.42	3.06 ± 0.5		
YVLKYMESNAAQYSPEALASIQNH [EFHC1]	2.31 ± 0.14	2.35 ± 0.24		
YYTMDPTQHVNNWMKHNVADSQIT [PTPRD]	2.95 ± 0.31	2.93 ± 0.5		
